Biological target: Human endothelial cells (ECV304)
Experiment: inhibition of endothelial cell adhesion to pepsinized collagen type IV by soluble monomer

recombinant human type IV collagen NCl (α1) monomer (from UniProt P02462)
percent inhibition of cell adhesion: 50%

recombinant type IV collagen NCl (α2) monomer (from UniProt P08572)
percent inhibition of cell adhesion: 50%

— patent publication US20040132662A1
